Molecular target: T1, MBP tagged CbbL(1–136) (Halothiobacillus neapolitan (ATCC 23641), UniProt O85040 1-136)
T1 construct: Residues 1-136 (N domain) of RuBisCO large subunit CbbL of Halothiobacillus neapolitan (ATCC 23641); The coat of the ELISA; also called CbbL(N)
T1 sequence (looked up): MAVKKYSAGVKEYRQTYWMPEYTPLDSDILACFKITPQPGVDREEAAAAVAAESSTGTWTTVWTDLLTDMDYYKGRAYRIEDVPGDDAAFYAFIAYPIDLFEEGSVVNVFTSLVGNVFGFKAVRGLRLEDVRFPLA
Test: ELISA; semi-quantitative; MaxiSorp plates coated with MBP-tagged CbbL(1–136) (30 nM in 0.1 M Na2CO3 pH 9.6, 4 °C, 12 h); CsoS1C-6xHis 5 nM to 5 μM in blocking buffer (1 mM CaCl2, 1% BSA in TBS), 1 h at room temperature; detected by 6xHis tag antibody and anti-mouse IgG-HRP; Hill equation fit; apparent Kd
Conditions: both partners purified

Kd: 120 ± 4.6 nM
B1: CsoS1C-6xHis (natural protein, Halothiobacillus neapolitan (ATCC 23641))
chain: MAAVTGIALGMIETRGLVPAIEAADAMTKAAEVRLVGRQFVGGGYVTVLVRGETGAVNAAVRAGADACERVGDGLVAAHIIARVHSEVENILPKAPEA
notes: Carboxysome shell protein CsoS1C of Halothiobacillus neapolitan (ATCC 23641); printed length 98 a.a; not measured in the assay
